Laboratory results reported in patent publication US20150351390A1, “COMPOSITIONS AND METHODS FOR AUXIN-ANALOG CONJUGATION” (PIONEER HI-BRED INTERNATIONAL, INC., priority 2012, published 2015).

B1: ZmACN26159: GH3 protein, accession ACN26159 (protein)
chain: MTICSSEEIIDEFELLTRDARRVQQDTLRKILELNGDAEYLNRFNLGRRTDSKSFKSCIPLCVHSDIESYIQRIADGDDSPVLTGKPITSLSLSSGTTQGKPKFLPFNDELLESTFQIFRTSYAFRNREYPIVNGKALQFVYGSKQVFTQGGILAATATTNLYRSQRFKEAMKDVMTQCCSPDEVIFGPDFHQSLYCHLLCGLINSDEVQFVFSPFAHSLVHAFHSLEEVWEDLCADIRDGVLSKRVTAPSIRQAVSKILRPNPELASSIYIKCQSLSNWYGVIPTLWPNVKYIYGIMTGSMEPYLKKLRHYAGHLPLLSADYGASEGWVGSNINPTLPPEEVTYAVLPNIAYFEFIPLEKPKWEETEICSSVHYIESEPVGLTEVEVGKIYEVVITNFAGLYRYRLGDIVKIAGFHNATPELQFICRRSLVLSVNIDKNTEKDLQLAVEAAEKLLAAEKLEVVDFTSLVDRSSEPGHYVIFWELSSDDGASEDVLSGCASCMDLAFADAGYVGSRKTQTIGALELRVLRKGAFAQVMNHYLSLGGAVSQFKTPRFVSQSNSKVLQILSRNVTRSYFSTAYGL
modifications: Zea mays
B2: SlGH3-8: GH3 protein, Solyc07g054580.2 (protein, listed as Solanum lycopersicum)
chain: MTNINCKDKIETDIIGWFDEVADDSAVVQRRTLRRILEMNHGVEYLKKWIGDIKIEEIDENLLESTYASLVPLASHADIEPFTKRIADGDTTPLLTQQPITNLSLSSGTTDGRQKFVPFTHHSSQTTLQIFKLAAAYRSRIYPIRRGGRILEFIYSSKQCKTKGGIIVGTATTHYYASDEFKIKQQQTKSFTCSPQEVISCGDYKQSTYCHLLLGLYFSHEVEFVTSAFAYSIVEAFRSFEEMWKELCHDIREGSLSSIINIDKVRKSVSGITQPNPELASRIESICVELERADWFSIIPKLWPNAKYVYSIMTGSMMPYLTKLRHYAGELPLVSADYGSTESWIGVNLDPSNPPEKVTFAVVPTFSYFEFIPLYKHKSNYNYQNVNLNSTNDDYIEGNSMPLCQVKSGQQYEIVITTFTGLYRYRLGDVVEVDGFYKKTPKLNFICRRNLILAINIDKNTEKDLQLVVERGARILSKGTRRAELVDFTSHANVTKQPGHYVIYWEIKGEIDEKVLDECCRDMDASFVDHGYVVSRRTKSIGPLELCIVERGTFKKILESYIGNGAALSQFKTPRCTSNKELLNILNVCTIKRFYSTAYG
B3: GmGH3-2: GH3 protein, accession XP_003521802.1 (protein)
chain: MLEKVEEFNMDKVIQEFELLTRDAERVQRETLKRILEDNASAEYLQSLGLNGRTDPESFKACVPMVTHKELEPYIYRIIDGDASPILTGKPITTMSLSSGTTQGKPKYVPWNDELYETTMQIYQTSFAFRNREFPIKNGKALSFIYGSKQLKTKGGLAARTATSNVFCSAGYKCAMRALQSQCCSPDEVIFGPDFFQSLYCHLLCGLIFREEVEFVSSTFAHSIVHAFRTFEQVWEELCNDIREGVLTRNVTVPSIRMAMSKLLKPNPELANAIHKKCTGLSNWYGLIPELFPNAKYIYGIMTGSMEPYLKKMRHYAGELPLLTADYGSSEGWIAANVNPQLPPEYATYAVLPHIGYFEFIPLLELENTKPLGLTQVKVGQEYEIVMTNPAGLYRYRLGDVVKVMGFHNSTPELKFIRRSSLLLNINIDKNTEKDLQLAVEAAGKLLAEEKLEVVDFSSQVDLSKEPGHYVIFWEISGDASQELLHECCNCLDKSFVDAGYTSSRKVNCIGALELRLVRRGTFQKILDHYLGLGTAVSQYKTPRCVGPTNTRVLQILSENVVNNYLSTAFN
modifications: Glycine max
B4: SlGH3-14: GH3 protein, SGN-E745758 (protein, listed as Solanum lycopersicum)
chain: MKMMVENIEKKFDAEEVIEDFEVLTKDAGRIQEETLEKILKENGGTEYLKQWGLNGRTDVETFKACVPIVGHNDLEPYIQRIADGDLSPILTGKPIETISLSSGTTQGKPKFVPFNDELMDSTMQIFKTSFAFRNREFPIGNGKALQFIYSSKQFKTKGGLAAGTATTNVYRNAQFKKTMNAMSTPVCSPDEVIFGPDFQQSLYCHLLSGLIFRDEVQVVSSTFAHSIVHAFRTFEQVWEELVVDIREGVLSSRVTVPSIRLAMSKLLKPDPELAETIYSKCSSLSNWYGLIPELFPNTKYIYGIMTGSMEPYLKKLRHYAGELPLLSADYGSSEGWVGVNVNPKFPPEMVTYAVLPNIGYFEFLPLEENLVGVEQANSPVGLTEVKLGEEYEIVFTNFAGLYRYRLGDVVKIKGFHNGTPELQFVCRRNLLLSINIDKNTEKDLQLAVEAAGKHLVDEKLEVMDFTSHVNVSADPGHYVIFWELSGEATDEILQECCNCLDKSFLDAGYVSSRKVNAIGALELRIVKRGTFHKILDHFVGLGGAVSQFKTPRCVGPKNSSLIQILSSNVVKSYSSTAFC
B5: SlGH3-1: GH3 protein, SL2.40ch01: 78555183-78557768 (protein, listed as Solanum lycopersicum)
chain: MLEKIEMKFDPEEVIEEFEALTKEAGKVQEETLKKILEENGSTVYLQQWGLNGRTDPEIFKSCVPLVTHKDLEPYIQRIADGDLSPVLTGKPITTISLSSGTTQGRPKFVPFNDELMESTMQIYKTSFAFRNREFPIENGKALQFIYSSKQFKTKGGLAAGTATTNVYRNAHFKKTMRAMQTPCCSPDEVIFGPDFHQSLYCHLLCGLIFRDEVQVVSSTFAHSIVHAFRTFEQVWEELVADIREGVISSRVTVPSMRSAIMKLLKPDPEQADSIYNKCSGLSNWYGLIPVLFPSARYIYGIMTGSMEPYLKKLRHYAGELPLLSADYGSSEGWIGANVNPKLPPELVTYAVLPNIGYFEFIPLRVNLDGLEPTPVGLAEVKLGEEYEIVVTNFAGLYRYRLGDVVKIKGFHNATPELQFICRSNLILSINIDKSTEKDLQLAVEAAARLLVDEKLEVVDFTSHANVATDPGHYVVFWELSGEASDETLQECCNCLDKSFVDAGYVGSRKVNVIGALELRVVKKGTFHKILDHFVGLGGAVSQFKTPRCVGQNNSRLLQILCYDVVKSYFSTAY

Assay: LC-MS assay of GH3 conjugation of IAA with Asp or Glu
Assay type: biochemical
Settings: LC-MS; IAA with Asp
Procedure, shortened: (§1)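 Kinetic parameters come from Michaelis-Menten fits of initial velocities. Velocities reflect LC-MS quantification, against standards, of Asp or Glu conjugates formed by purified GH3 (44 to 164 μg/mL) with 5 mM ATP and MgCl2 at pH 8.0, 30° C.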

Molecule | Detected auxin conjugates: IAA-Asp
B1 | No
B2 | Yes
B3 | Yes
B4 | No
B5 | Yes

Same assay, conditions: LC-MS; IAA with Glu

Molecule | Detected auxin conjugates: IAA-Glu
B1 | No
B2 | Yes
B3 | No
B4 | No
B5 | No

Assay: LC-MS assay of GH3 conjugation of 2,4-D with Asp or Glu
Assay type: biochemical
Settings: LC-MS; 2,4-D with Asp
Procedure, shortened: as §1

Molecule | Detected auxin conjugates: 2,4-D-Asp
B1 | No
B2 | Yes
B3 | No
B4 | No
B5 | No

Same assay, conditions: LC-MS; 2,4-D with Glu

Molecule | Detected auxin conjugates: 2,4-D-Glu
B1 | No
B2 | Yes
B3 | No
B4 | No
B5 | No

Assay: LC-MS assay of GH3 conjugation of dicamba with Asp or Glu
Assay type: biochemical
Settings: LC-MS; dicamba with Asp
Method: To detect and monitor the formation of acyl conjugates with 2,4-D or dicamba, a sensitive LC-MS method was developed using the respective amino acid conjugate standards. […] […] […] The supernatant was diluted 20× in water and then analyzed by LC-MS (AB Sciex 4000 QTrap coupled with Shimadzu Nexera UHPLC) using a Phenomenex Luna 3 μm Phenyl-Hexyl (00B-4256-Y0) column. The concentration of the conjugates was calculated based on the standards. Kinetic parameters were estimated by fitting initial velocity values to the Michaelis-Menten equation.
The GH3 superfamily conjugase activity analysis of IAA, 2,4-D or dicamba with Asp or Glu was done using LC-MS to analyze the final conjugate products as described in Example 1. Protein sequences of GH3 homologs (Table 3) were obtained from public databases (NCBI, http://www.ncbi.nlm.nih.gov/) by Blast analysis of AtGH3.17 protein sequence (accession # Q9FZ87). Coding sequences were designed for optimal expression in E. coli based on the protein sequences and synthesized. Synthesized coding sequences along with N-term his-tag coding sequences were cloned into a pET24a-based E. coli expression vector. The E. coli expression vectors were transformed into OverExpress C41(DE3) cells (Lucigen) for protein expression. Recombinant E. coli strains were inoculated into 5 ml LB media supplemented with 40 mg/L kanamycin and cultured overnight at 37° C. The overnight culture (0.5 mL) was inoculated into 50 mL LB medium plus 40 mg/L kanamycin and grown at 30° C. until OD600 reached 0.6. The cultures were induced with 0.2 mM IPTG at 16° C., 230 rpm overnight. Cells were harvested by centrifugation at 7,000 rpm for 10 mins. The cell pellet from 50 mL of cell culture was frozen and thawed twice and then lysed in 800 μL lysis buffer A (150 mM NaCl, 50 mM Tris-HCl pH 8.0, 5 mM MgCl2, 10% glycerol) plus 20 mM imidazole, 1 mM DTT, 0.2 mg/ml lysozyme, 1/200 protease inhibitor cocktail (EMD set3, EDTA free) and 1/2000 endonuclease. Lysate was then centrifuged at 13,000 rpm for 30 min at 4° C. Supernatant was loaded onto 200 μL Ni-NTA columns pre-equilibrated with buffer A with 20 mM imidazole at 4° C. Each column was then washed with (1) 2×800 μL of buffer A with 10 mM imidazole, (2) 2×800 μL of buffer A with 20 mM imidazole and (3) 2×200 μL of buffer A with 50 mM imidazole. Protein was eluted with 200 μL of buffer A with 250 mM imidazole. The concentration was measured by Bradford assay. Purified protein was used in conjugation reaction assays as described in example 1.

Molecule | Detected auxin conjugates: Dicamba-Asp
B1 | No
B2 | No
B3 | No
B4 | No
B5 | No

Same assay, conditions: LC-MS; dicamba with Glu

Molecule | Detected auxin conjugates: Dicamba-Glu
B1 | No
B2 | No
B3 | No
B4 | No
B5 | No
